Source: CN116265487A (SANYOU BIO INC, dated 2023)
Where “and” joins values, the source holds several entries; their conditions need not be identical. Equal entries are not always repeated.

T1: 重组蛋白hANG2-His (human, UniProt O15123 19-496)
T1 construct: Made in Expi293 cells; not shown: C-terminal His tag
T1 sequence: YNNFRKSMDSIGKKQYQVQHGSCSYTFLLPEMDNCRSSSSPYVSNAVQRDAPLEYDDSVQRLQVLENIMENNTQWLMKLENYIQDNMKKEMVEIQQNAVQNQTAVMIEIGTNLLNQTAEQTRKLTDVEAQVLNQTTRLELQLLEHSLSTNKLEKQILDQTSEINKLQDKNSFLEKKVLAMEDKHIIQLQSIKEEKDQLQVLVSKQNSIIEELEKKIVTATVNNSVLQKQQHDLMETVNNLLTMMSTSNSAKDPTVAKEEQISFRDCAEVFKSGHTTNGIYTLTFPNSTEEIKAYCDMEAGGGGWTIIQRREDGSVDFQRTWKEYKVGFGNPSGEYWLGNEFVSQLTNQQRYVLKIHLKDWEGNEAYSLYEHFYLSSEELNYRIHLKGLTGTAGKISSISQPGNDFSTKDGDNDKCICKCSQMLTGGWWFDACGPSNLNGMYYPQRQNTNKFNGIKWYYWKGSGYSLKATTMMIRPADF


Legend:
[1] = molecular target: T1, 重组蛋白hANG2-His; test: ELISA, hANG2-His coated, anti-human-IgG-Fc-HRP detection
[2] = molecular target: hANG1-Fc (human, UniProt Q15389 16-498, limits assumed); test: ELISA, 2μg/mL hANG1-Fc coated, anti-human Kappa HRP detection
[3] = molecular target: T2, 生物素标记的hANG2-Fc蛋白 (human, biotin-labelled (sites not given)); test: FACS blocking of biotin-hANG2-Fc binding to huTie2-HEK293 cells
T2 construct: also called biotin-hANG2-Fc

Chain of hANG1-Fc (Q15389 other isoform, or with tags, fused parts or gaps limits assumed): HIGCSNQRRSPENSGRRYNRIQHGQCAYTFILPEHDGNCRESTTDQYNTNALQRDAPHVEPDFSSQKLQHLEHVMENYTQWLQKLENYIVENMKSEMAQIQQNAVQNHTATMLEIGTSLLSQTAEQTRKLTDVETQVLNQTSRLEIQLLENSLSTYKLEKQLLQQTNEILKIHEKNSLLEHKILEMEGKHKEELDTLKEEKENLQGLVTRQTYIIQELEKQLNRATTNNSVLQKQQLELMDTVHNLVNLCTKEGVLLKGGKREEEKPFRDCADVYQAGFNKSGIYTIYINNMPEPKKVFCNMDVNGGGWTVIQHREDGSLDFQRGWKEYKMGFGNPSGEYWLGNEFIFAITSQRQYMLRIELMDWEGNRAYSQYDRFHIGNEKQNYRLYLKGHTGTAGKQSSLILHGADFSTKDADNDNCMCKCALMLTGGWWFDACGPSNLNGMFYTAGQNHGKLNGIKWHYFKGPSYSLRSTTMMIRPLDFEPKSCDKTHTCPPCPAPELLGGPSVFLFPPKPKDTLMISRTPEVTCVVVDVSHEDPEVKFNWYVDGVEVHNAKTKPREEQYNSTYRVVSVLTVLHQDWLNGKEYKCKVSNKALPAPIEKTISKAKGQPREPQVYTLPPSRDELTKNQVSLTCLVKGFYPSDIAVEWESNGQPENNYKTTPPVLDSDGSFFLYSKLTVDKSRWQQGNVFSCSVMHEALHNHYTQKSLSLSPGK

binding result [1] | binding result [2] | IC50 [3] | Binder
binds | no binding |  | 全人源抗体17 (antibody, human IgG1, kappa, V domains shown, Fully human anti-ANG2 antibody in IgG1 format) VH: EVQLVESGGGVVKPGGSLRLSCAASGFTFNKYTINWVRQTPGKGLELVADISSGGDYVNYADSVKGRFTISRDNAKDSVYLLMNGLRAEDTAVYYCARDALTYSNNWLDSWGQGTLVTVSS VL: DIQLTQSPSFLSASVGDRVTITCRASQGISSYLAWYQQKPGKAPKLLIYAASTLQSGVPSRFSGGGYGTDFTLTISSLQPEDFATYYCQQFESYPLTFGGGTRLEIKR
binds | no binding | 0.226 nM and 0.44 nM | 全人源抗体78A74-7 (antibody, human IgG1, kappa, V domains shown, Fully human anti-ANG2 antibody in IgG1 format) VH: QVQLVESGGGLVKPGGSLRLSCAASGFTFSSYSMNWVRQAPGKGLEWVAVISYDGSNKYYADSVKGRFTISRDNSKNTLYLQMNSLRAEDTAVYYCAKATLDGYTAGYYYGMDVWGQGTTVTVSS VL: EIVLTQSPATLSLSPGERATLSCRASQSVSSYLAWYQQKPGQAPRLLIYDASNRATGIPARFSGSGSGTDFTLTISSLEPEDFAVYYCQLMSNWPPEWTFGQGTKVEIKR
